Measurements taken from patent US20110076298A1, “Soluble stabilized trimeric hiv env proteins and uses thereof” (priority 2006, published 2011).
Read-outs that look alike come from different tables or passages of the source.

Key:
[1] = target: KNH1207 gp120 (monomeric, subtype A) (HIV-1 KNH1207, subtype A); experiment: ELISA on D7324-captured gp120, half-maximal binding
[2] = target: BB359 gp120 (monomeric, subtype A) (HIV-1 BB359, subtype A); experiment: as above
[3] = target: KNH1211 gp120 (monomeric, subtype A) (HIV-1 KNH1211, subtype A); experiment: as above
[4] = target: KER2008 gp120 (monomeric, subtype A) (HIV-1 KER2008, subtype A); experiment: as above
[5] = target: KNH1144 gp120 (monomeric, subtype A) (HIV-1 KNH1144, subtype A); experiment: as above
[6] = target: gp120JR-FL (monomeric, subtype B) (HIV-1 JR-FL, subtype B); experiment: as above
[7] = target: gp120BaL (subtype B) (HIV-1 BaL, subtype B); experiment: as above
[8] = target: Q23-17 gp120 (monomeric, subtype A) (HIV-1 Q23-17, subtype A); experiment: as above
[9] = target: gp120DU151 (subtype C) (HIV-1 DU151, subtype C); experiment: as above
[10] = target: HIV-1KER2008 Env on Env-pseudotyped virus (HIV-1 KER2008, subtype A); experiment: cell-based or functional assay
[11] = target: HIV-1KNH1211 Env on Env-pseudotyped virus (HIV-1 KNH1211, subtype A); experiment: cell-based or functional assay
[12] = target: HIV-1KNH1144 Env on Env-pseudotyped virus (HIV-1 KNH1144, subtype A); experiment: cell-based or functional assay
[13] = target: HIV-1KNH1207 Env on Env-pseudotyped virus (HIV-1 KNH1207, subtype A); experiment: cell-based or functional assay
[14] = system: HIV-1JR-FL Env-pseudotyped virus; experiment: Env-pseudotyped HIV-1 neutralization assay, JR-FL Env; assay type: cell-based; conditions: CCR5 inhibitors and RT inhibitor, read-out: Env-pseudotyped neutralization (50% endpoint) JR-FL
Protocol: (§1) FIGS. 4A-AF: Inhibition of infection by HIV-1JR-FL (filled circles) or HIV-1KNH1144 (open circles) Env-pseudotyped viruses by MAbs and fusion inhibitors. The viruses were incubated with the indicated concentrations of the inhibitors for 1 h prior to addition to U87.CD4.CCR5 cells. The luciferase content of cell lysates was determined after 3-4 days.
(§2) The generation and quantification of Env-pseudotyped HIV-1 viruses and their subsequent use in neutralization assays have been described previously.^45,65. U87.CD4.CCR5 target cells were used because the input pseudoviruses had the R5 phenotype. The amount of input pseudovirus was normalized by infectivity (virus titer). Virus infection was measured by determining luciferase expression in relative light units (RLU) in target cell lysates, according to the manufacturer's instructions (Promega, Madison, Wis.).
(§3) To assess the neutralization sensitivity of viruses bearing subtype A Env proteins, cytoplasmic tail-truncated gp140s from KER2008, KNH1144, KNH1207 and KNH1211 were co-expressed in trans with the pNL4/3.Luc plasmid to form single cycle, replication-incompetent pseudoviruses^72. Pseudovirions bearing the full-length Env protein from HIV-1JR-FL were also studied, for comparison.

[15] = system: HIV-1KNH1144 Env-pseudotyped virus; experiment: Env-pseudotyped HIV-1 neutralization assay, KNH1144 Env; assay type: cell-based; conditions: CCR5 inhibitors and RT inhibitor, read-out: Env-pseudotyped neutralization (50% endpoint) KNH1144
Protocol: as §1, §2, §3

[16] = Detergent collapse effect on 5768.4 SOSIP R6 gp140 preparation, BN-PAGE; assay type: physicochemical; conditions: 1 hour, room temperature
Protocol: FIG. 15: Detergent “collapse” effect on subtype B 5768.4 HMW aggregate. 0.24 ug of purified subtype B 5768.4 SOSIP R6 gp140 trimer was incubated with 0.05 or 0.1% Tween 20. In addition, similar incubations were performed with NP40, Triton X-100, and SDS (at a final concentration of 0.1%) or the trimer preparation was untreated. Reactions were separated on BN-PAGE and visualized by coomassie G-250 stain. Arrows indicate HMW aggregate, a2M contaminant, trimer and monomer proteins. M stands for the 669 k thyroglobulin and 440 k ferritin molecular weight protein standards.
Tween® 20 Dose effect: 1 ug of purified 5768.4 SOSIP R6 trimer was incubated with varying concentrations of Tween® 20 ranging from 0.1 to 0.0001% (v/v) and incubated for 1 hour at room temperature. Following incubation, samples were analyzed by BN-PAGE as described above. Detergent effect on 5768.4 SOSIP R6 gp140 trimer preparations: 0.24 ug of purified 5768.4 SOSIP R6 trimer was incubated with Triton X-100, NP-40, or SDS to a final detergent concentration of 0.1% (v/v) or with Tween® 20 at concentrations of 0.05 and 0.1% for 1 hour at room temperature. Following incubation, 4× BN-PAGE MOPS sample buffer was added and the samples were immediately analyzed on BN-PAGE at 150 V for 2 hours at room temperature, followed by Coomassie G-250 staining.

[17] = Oligomeric stability of purified SOSIP gp140 trimers to detergents, BN-PAGE; assay type: physicochemical; conditions: 0.1% (v/v), 1 h, 25° C.
Protocol: Biophysical and antigenic characterization of purified trimers derived from KNH1144 SOSIP gp140. (A) Trimeric KNH1144 SOSIP gp140 was treated with 0.1% (v/v) ionic (SDS) and non-ionic (NP40, Nonidet-P40; Tw20 (Tween®-20); TX100 (Triton X-100) detergents for 1 h at 25° C. before BN-PAGE analysis. (B) Trimeric KNH1144 SOSIP gp140 was incubated with 0.5 μg/ml of the indicated MAbs or proteins, and then immunoprecipitated with protein G sepharose prior to analysis by SDS-PAGE.
The oligomeric stability of purified SOSIP gp140 trimers was determined essentially as previously described.^44 Briefly, 50 ng of protein was treated with 0.1% (v/v) SDS, Nonidet P-40, Tween®-20 or Triton X-100 for 1 h at room temperature, followed by analysis on BN-PAGE. The various oligomeric forms of Env resolved on the gel were detected by CA13 immunoblotting.
A purified Env trimer should meet several criteria to establish that it has been synthesized, folded, cleaved and otherwise post-translationally modified correctly. For example, it is important to establish that SOSIP gp140 trimers are oligomerized via non-covalent interactions between the gp41ECTO subunits, and not via aberrant inter-subunit disulfide bonds^40,66,67. For these assessments, purified KNH1144 SOSIP gp140 trimers were treated for 1 h at 25° C. with 0.1% (v/v) ionic (SDS) and non-ionic (NP-40, Tween®-20, Triton X-100) detergents and then analyzed by BN-PAGE. […] This is consistent with studies of JR-FL SOSIP gp140 trimers^44.

human monoclonal IgG b12 (antibody)
EC50 [1]: 0.092 µg/mL | EC50 [2]: > 1 µg/mL | EC50 [3]: 0.033 µg/mL | EC50 [4]: > 1 µg/mL | EC50 [5]: 0.642 µg/mL | EC50 [6]: 0.027 µg/mL | EC50 [7]: 0.015 µg/mL | EC50 [8]: > 1 µg/mL | EC50 [9]: 0.018 µg/mL | IC90, neutralization of Env-pseudotyped virus [10]: > 3 µg/mL | IC50, neutralization of Env-pseudotyped virus [11]: 1.14 µg/mL | IC90, neutralization of Env-pseudotyped virus [11]: 1.9 µg/mL | IC90, neutralization of Env-pseudotyped virus [12]: > 3 µg/mL | IC50, neutralization of Env-pseudotyped virus [13]: 0.21 µg/mL | IC90, neutralization of Env-pseudotyped virus [13]: 0.9 µg/mL

MAb CA13 (ARP 3119) (antibody)
EC50 [1]: 0.337 µg/mL | EC50 [2]: 0.406 µg/mL | EC50 [3]: 0.176 µg/mL | EC50 [4]: 1.57 µg/mL | EC50 [5]: 0.636 µg/mL | EC50 [6]: > 9 µg/mL | EC50 [7]: 0.059 µg/mL | EC50 [8]: 0.094 µg/mL | EC50 [9]: 0.043 µg/mL

human monoclonal IgG 2G12 (antibody)
EC50 [1]: 0.478 µg/mL | EC50 [2]: > 1 µg/mL | EC50 [3]: > 1 µg/mL | EC50 [4]: 0.064 µg/mL | EC50 [5]: > 1 µg/mL | EC50 [6]: 0.061 µg/mL | EC50 [7]: 0.012 µg/mL | EC50 [8]: 0.54 µg/mL | EC50 [9]: > 1 µg/mL

CCO/N=C(\c1ccc(Br)cc1)C1CCN(C2(C)CCN(C(=O)c3c(C)cc[n+]([O-])c3C)CC2)CC1 [SCH-C]
IC50 ([14]; Human immunodeficiency virus 1): 0.2 nM | IC50 ([15]; Human immunodeficiency virus 1): 0.04 nM

CD4-immunoglobulin G2 (CD4-IgG2) protein (from UniProt P01730 26-204) (Fc fusion)
EC50 [1]: 0.068 µg/mL | EC50 [3]: 0.063 µg/mL | EC50 [4]: 0.236 µg/mL | EC50 [5]: 0.103 µg/mL | EC50 [6]: 0.046 µg/mL | EC50 [7]: 0.057 µg/mL | EC50 [8]: 0.083 µg/mL | EC50 [9]: 0.09 µg/mL

human monoclonal IgG 2F5 (antibody)
IC50, neutralization of Env-pseudotyped virus [10]: > 3 µg/mL | IC50, neutralization of Env-pseudotyped virus [11]: 0.03 µg/mL | IC90, neutralization of Env-pseudotyped virus [11]: 0.99 µg/mL | IC50, neutralization of Env-pseudotyped virus [12]: > 3 µg/mL | IC50, neutralization of Env-pseudotyped virus [13]: 0.01 µg/mL | IC90, neutralization of Env-pseudotyped virus [13]: 0.21 µg/mL

5768.4 SOSIP R6 gp140: subtype B 5768.4 envelope modified to the soluble SOSIP R6 gp140 trimer; SEQ ID NO:10
effect of NP40 on HMW aggregate ([16]; 0.1%): collapse of HMW aggregate to trimer | effect of SDS ([16]; 0.1%): breaking down the entire 5768.4 gp140 protein to resulting monomers | effect of Triton X-100 on HMW aggregate ([16]; 0.1%): capable of collapsing HMW aggregate to trimer, however, some breakdown to monomeric 5768.4 was observed | effect of Tween (Tween 20 and Tween 80) on HMW aggregate ([16]; 0.1 and 0.05%): effectively collapsed HMW aggregate to trimers

KNH1144 SOSIP gp140: soluble, disulfide-stabilized, I571P-modified cleaved trimeric gp140 of HIV-1 subtype A KNH1144
adverse effects of NP-40 on trimers [17]: little | adverse effects of Triton X-100 on trimers [17]: little | adverse effects of Tween-20 on trimers [17]: no | effect of SDS on trimers [17]: completely dissociate into dimers and monomers

COC[C@@H](c1ccc(C(F)(F)F)cc1)N1CCN(C2(C)CCN(C(=O)c3c(C)ncnc3C)CC2)C[C@@H]1C [SCH-D]
IC50 ([14]; Human immunodeficiency virus 1): 0.1 nM | IC50 ([15]; Human immunodeficiency virus 1): 0.01 nM

Cc1cn([C@H]2C[C@H](N=[N+]=[N-])[C@@H](CO)O2)c(=O)[nH]c1=O [AZT]
IC50 [14]: 220 nM | IC50 [15]: 240 nM
